The values below come from patent US20230357415A1 (AJOU UNIVERSITY INDUSTRY ACADEMIC COOPERATION FOUNDATION, published 2023).

The Kd is the constant that tells how readily two partners part at equilibrium. Lower therefore signals higher affinity. One may read the koff as the first-order rate constant of dissociation. Low readings indicate a long-lived complex, high ones a short-lived complex. As a reminder, the kon is a measure of how fast the partners come together. High values mean faster complex formation, low ones slower complex formation.

Like-named read-outs stand apart in the source and are kept apart here.

The target of assay [1] is T1, purified sIL-5Rα (Asp1-Asn313 of SEQ ID NO: 66) (Homo sapiens (Human), UniProt Q01344 21-333).
T1 construct: also called the purified sIL-5Rα
T1 sequence: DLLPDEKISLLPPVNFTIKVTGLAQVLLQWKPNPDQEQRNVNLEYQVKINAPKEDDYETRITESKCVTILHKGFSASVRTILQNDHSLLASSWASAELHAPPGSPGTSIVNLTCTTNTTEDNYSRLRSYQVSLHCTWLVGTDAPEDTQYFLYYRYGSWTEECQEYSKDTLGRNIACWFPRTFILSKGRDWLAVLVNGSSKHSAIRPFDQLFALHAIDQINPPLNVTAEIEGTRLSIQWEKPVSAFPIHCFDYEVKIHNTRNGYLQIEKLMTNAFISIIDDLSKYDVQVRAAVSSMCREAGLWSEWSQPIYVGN
Briefly: BLI (Octet QKe), antibody on AHC sensor, purified sIL-5Rα in solution, 1:1 model. On the procedure:
Specifically, lx kinetic buffer was prepared by diluting 10× kinetic buffer (ForteBio, 18-1105) in PBS. […] Affinity was calculated with Octet Data Analysis software 11.0 in a 1:1 binding model.

The target of assay [2] is T2, sIL-4Rα (soluble IL-4Rα) antigen protein (human, UniProt P24394 26-232).
T2 construct: The ELISA and Octet assays used the bought protein (Sinobio 10402-H08H); also called CD124; sinobio 10402-H08H
Briefly: indirect ELISA; plate-coated sIL-4Rα, antibody 100 nM, anti-human Fc-HRP, absorbance at 450 nm. On the procedure: (§1) The binding specificity of anti-IL-5Rα humanized antibodies was determined using indirect ELISA. A multi-antigen ELISA was performed using four structurally different antigenic double-stranded DNA (dsDNA), insulin, the macromolecule hemocyanin, and the membrane component, cardiolipin. Specifically, sIL-4Rα antigen protein (50 ng/well, Sinobio; 10402-H08H), sIL-5Rα antigen protein (50 ng/well, Sinobio; 10392-H08H), dsDNA (25 ng/well, D4522; Sigma), insulin (125 ng/well, 19278; Sigma), hemocyanin (125 ng/well, H8283; Sigma), and cardiolipin (1250 ng/well, C0563; Sigma) proteins were immobilized on a 96-well plate at room temperature for 1 hour, and blocked using 2% skim milk containing 0.1% PBST (0.1% Tween20, pH 7.4, 137 mM NaCl, 10 mM phosphate, 2.7 mM KCl) at room temperature for 1 hour. After discarding the solution and then washing the same three times with 0.1% PBST, the antibody was diluted to 100 nM, added to the blocked plate in an amount of […], and allowed to react at room temperature for 1 hour. […] After discarding the solution and washing three times with PBST, a TMB solution was added in an amount of […], color development was induced at room temperature for 2 minutes, the reaction was stopped using H₂SO₄ (2N), and the absorbance at 450 nm was measured with an ELISA reader.

Assay [3] concerns the target T3, insulin (Homo sapiens (Human), UniProt P01308 25-54; P01308 90-110, Mature two-chain hormone: A and B chains joined by two interchain disulfides, plus one intrachain disulfide in the A chain; the letters do not carry these.).
T3 construct: Irrelevant antigen of the multi-antigen specificity ELISA; also called insulin (125 ng/well, 19278; Sigma)
Briefly: indirect ELISA; plate-coated insulin, antibody 100 nM, anti-human Fc-HRP, absorbance at 450 nm. As for the experimental part:
as §1
(In general: ELISA stands for enzyme-linked immunosorbent assay.)

Assay [4] concerns the target T4, sIL-5Rα antigen protein (Sinobio 10392-H08H) (Homo sapiens (Human), UniProt Q01344 21-342).
T4 construct: Bought protein immobilised in the indirect ELISAs; also called soluble IL-5Rα; CD125
T4 sequence: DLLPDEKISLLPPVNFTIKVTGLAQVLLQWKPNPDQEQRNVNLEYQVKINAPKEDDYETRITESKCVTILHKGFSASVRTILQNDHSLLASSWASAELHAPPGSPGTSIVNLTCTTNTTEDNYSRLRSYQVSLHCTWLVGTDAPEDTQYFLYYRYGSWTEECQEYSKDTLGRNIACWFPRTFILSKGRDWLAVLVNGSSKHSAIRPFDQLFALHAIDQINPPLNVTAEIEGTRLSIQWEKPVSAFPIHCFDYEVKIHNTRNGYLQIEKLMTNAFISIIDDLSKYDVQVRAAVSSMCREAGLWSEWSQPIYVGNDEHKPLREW
The experiment in a line: indirect ELISA; plate-coated sIL-5Rα, antibody 100 nM, anti-human Fc-HRP, absorbance at 450 nm. As for the experimental part:
(§2) The binding specificity of the antibody was determined using indirect ELISA. A multi-antigen ELISA was performed using four structurally different antigenic double-stranded DNA (dsDNA), insulin, the macromolecule hemocyanin, and the membrane component, cardiolipin. Specifically, sIL-4Rα antigen protein (50 ng/well, sinobio; 10402-H08H), sIL-5Rα antigen protein (50 ng/well, sinobio; 10392-H08H), dsDNA (25 ng/well, D4522; Sigma), insulin (125 ng/well, 19278; Sigma), hemocyanin (125 ng/well, H8283; Sigma), and cardiolipin (1250 ng/well, C0563; Sigma) proteins were immobilized on a 96-well plate at room temperature for 1 hour, and blocked using 2% skim milk containing 0.1% PBST (0.1% Tween20, pH 7.4, 137 mM NaCl, 10 mM phosphate, 2.7 mM KCl) at room temperature for 1 hour. After discarding the solution and then washing the same three times with 0.1% PBST, the antibody was diluted to 100 nM, added to the blocked plate in an amount of 25 μl/well, and allowed to react at room temperature for 1 hour. After discarding the solution and washing the same three times with 0.1% PBST, an anti-human Fc-HRP antibody (1:8000) as a secondary antibody was added in an amount of 25 μl/well and reacted at room temperature for 1 hour. After discarding the solution and washing three times with PBST, a TMB solution was added in an amount of 25 μl/well, color development was induced at room temperature for 2 minutes, the reaction was stopped using H₂SO₄ (2N), and the absorbance at 450 nm was measured with an ELISA reader.

For assay [5], the target named is T3, insulin. Briefly: indirect ELISA; plate-coated insulin, antibody 100 nM, anti-human Fc-HRP, absorbance at 450 nm. As for the experimental part:
as §2
The source holds these as a separate data set.

The target of assay [6] is T2, sIL-4Rα (soluble IL-4Rα) antigen protein. The experiment in a line: BLI (Octet QKe), antibody on AHC sensor, sIL-4Rα in solution, 1:1 model. On the procedure:
Antigen affinity of antibodies was analyzed through variation in the refractive index occurring when the antibody bound to the antigen was detached therefrom while the AHC (anti-human IgG Fc capture) sensor chip moved in the order of kinetic buffer, antibody dilution solution, kinetic buffer, antigen dilution solution, and kinetic buffer. Affinity was calculated with Octet Data Analysis software 11.0 in a 1:1 binding model.

T3 sequence (P01308 25-54 limits assumed, chain 1 of 2): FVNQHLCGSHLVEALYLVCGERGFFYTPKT
T3 sequence (P01308 90-110 limits assumed, chain 2 of 2): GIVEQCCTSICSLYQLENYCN

B1: 5R65.39 (antibody, IgG1, V domains shown)
VH: QVQLVQSGAEVKKPGSSVKVSCKASGYTFTSYWINWVRQAPGQGLEWIGHIYPNKNENYYNHKFKDKATLTVDKSTNTAYMELSSLRSEDTAVYYCTREFYGRSRYSAMDYWGQGTTLTVSS
VL: DIQMTQSPSTLSASVGDRVTITCKASQNVGTAVAWYQQKPGKAPKLLIYWASTRHTGVPDRFSGSGSGTDFTLTISSLQPDDFATYYCQQFGRYPYTFGSGTKVEVK
notes: IgG1
Turning to B1, in assay [1], the affinity, expressed as Kd, was 6130 pM; the koff came out at 0.000171 s⁻¹; the kon was 28000 M⁻¹ s⁻¹. Moreover, the binding result in assay [2] is on record as “no binding (tested: 100 nM)”. Also, the binding result in the assay with insulin [3] was “no binding (tested: 100 nM)”.

B2: 5R65.45 (antibody, IgG1, V domains shown)
VH: QVQLVQSGAEVKKPGSSVKVSCKASGYTFTSYWINWVRQAPGQGLEWIGHIYPNKNENYYNHKFKDKATLTVDKSTNTAYMELSSLRSEDTAVYYCTREYYGRSYYNAMDYWGQGTTLTVSS
VL: DIQMTQSPSTLSASVGDRVTITCKASQNVGTAVAWYQQKPGKAPKLLIYWASTRHTGVPDRFSGSGSGTDFTLTISSLQPDDFATYYCQQFGRYPYTFGSGTKVEVK
notes: IgG1
In assay [1], B2 registered a Kd of 7260 pM, an off-rate constant (koff) of 0.000181 s⁻¹ and a kon of 24900 M⁻¹ s⁻¹. Moreover, in assay [2], the binding result is “no binding (tested: 100 nM)”. Besides, in the assay with insulin [3], the binding result is “no binding (tested: 100 nM)”.

B3: 4R34.1.19 antibody (antibody, V domains shown)
VH: EVQLLESGGGLVQPGGSLRLSCAASGFTFSRHAMAWVRQAPGKGLEWVSAITSSGRSIYYADSVKGRFTISRDNSKNTLYLQMNSLRAEDTAVYYCARVHRAFDYWGQGTLVTVSS
VL: QSVLTQPPSASGTPGQRVTISCSGSPLFPDSGSFNWYQQLPGTAPKLLIYADSHRPSGVPDRFSGSKSGTSASLAISGLRSEDEADYYCGTWDYSLSGYVLGGGTKLTVLG
notes: Parent anti-IL-4Rα antibody, tested as IgG1 and captured through human Fc; also called anti-IL-4Rα antibody (4R34.1.19)
For the molecule B3, the binding result in assay [4] was “binds”.

B4: 4R.N4 (antibody, V domains shown)
VH: EVQLLESGGGLVQPGGSLRLSCAASGFTFSRHAMAWVRQAPGKGLEWVSAITMSGRGIYYADSVKGRFTISRDNSKNTLYLQMNSLRAEDTAVYYCARVHRAFDYWGQGTLVTVSS
VL: QSVLTQPPSASGTPGQRVTISCSGSPLFPDSGSFNWYQQLPGTAPKLLIYADSHRPSGVPDRFSGSKSGTSASLAISGLRSEDEADYYCGTWDYSLSAYVLGGGTKLTVLG
notes: Converted from scFab to IgG1 and expressed in HEK293F
B4: the binding result in assay [4] is recorded as “no binding (tested: 100 nM)”. The binding result with insulin [5] is “no binding (tested: 100 nM)”. In assay [6], this molecule yielded a dissociation constant Kd of 99.7 pM, a koff of 0.000162 s⁻¹ and a kon of 1.63e+06 M⁻¹ s⁻¹.

B5: 4R.N1 (antibody, V domains shown)
VH: EVQLLESGGGLVQPGGSLRLSCAASGFTFSRHAMAWVRQAPGKGLEWVSAITASGRSIYYADSVKGRFTISRDNSKNTLYLQMNSLRAEDTAVYYCARVHRAFDYWGQGTLVTVSS
VL: QSVLTQPPSASGTPGQRVTISCSGSPLFPDSGSFNWYQQLPGTAPKLLIYADSHRPSGVPDRFSGSKSGTSASLAISGLRSEDEADYYCGTWDYSLNRYVLGGGTKLTVLG
notes: Converted from scFab to IgG1 (pcDNA3.4 vector with IgG1 constant regions) and expressed in HEK293F
As for B5, the binding result in assay [4] is “no binding (tested: 100 nM)”. The binding result in the assay with insulin [5] is listed as “no binding (tested: 100 nM)”. In assay [6], this molecule returned a Kd of 170 pM, a koff of 0.000338 s⁻¹ and a kon of 1.99e+06 M⁻¹ s⁻¹.

B6: 4R.N3 (antibody, V domains shown)
VH: EVQLLESGGGLVQPGGSLRLSCAASGFTFSRHAMAWVRQAPGKGLEWVSAITMSGRSIYYADSVKGRFTISRDNSKNTLYLQMNSLRAEDTAVYYCARVHRAFDYWGQGTLVTVSS
VL: QSVLTQPPSASGTPGQRVTISCSGSPLFPDSGSFNWYQQLPGTAPKLLIYADSHRPSGVPDRFSGSKSGTSASLAISGLRSEDEADYYCGTWDYSLNRYVLGGGTKLTVLG
notes: as for B4
As for B6, the binding result in assay [4] was “no binding (tested: 100 nM)”. Moreover, the binding result with insulin [5] is “no binding (tested: 100 nM)”. In addition, in assay [6], the equilibrium dissociation constant (Kd) worked out at 68.6 pM, the koff was 0.000139 s⁻¹ and the kon is 2.02e+06 M⁻¹ s⁻¹.

B7: 4R.N7 (antibody, V domains shown)
VH: EVQLLESGGGLVQPGGSLRLSCAASGFTFSRHAMAWVRQAPGKGLEWVSAITASGRSIYYADSVKGRFTISRDNSKNTLYLQMNSLRAEDTAVYYCARVHRAFDYWGQGTLVTVSS
VL: QSVLTQPPSASGTPGQRVTISCSGSPLFPDSGSFNWYQQLPGTAPKLLIYADSHRPSGVPDRFSGSKSGTSASLAISGLRSEDEADYYCGTWDYSLSSYVLGGGTKLTVLG
notes: as for B4
Regarding B7, in assay [4], the binding result is “no binding (tested: 100 nM)”. Besides, the binding result with insulin [5] was “no binding (tested: 100 nM)”. In assay [6], this molecule had a Kd of 43.1 pM, a koff of 6.07e-05 s⁻¹ and a kon of 1.55e+06 M⁻¹ s⁻¹.

B8: 4R.N6 (antibody, V domains shown)
VH: EVQLLESGGGLVQPGGSLRLSCAASGFTFSRHAMAWVRQAPGKGLEWVSAITMSGRSIYYADSVKGRFTISRDNSKNTLYLQMNSLRAEDTAVYYCARVHRAFDYWGQGTLVTVSS
VL: QSVLTQPPSASGTPGQRVTISCSGSPLFPDSGSFNWYQQLPGTAPKLLIYADSHRPSGVPDRFSGSKSGTSASLAISGLRSEDEADYYCGTWDYSLNSYVLGGGTKLTVLG
notes: as for B4
B8: the binding result in assay [4] was “no binding (tested: 100 nM)”. Besides, the binding result with insulin [5] is recorded as “no binding (tested: 100 nM)”. Also, in assay [6], the Kd worked out at 70.5 pM, the koff was found to be 0.000126 s⁻¹ and the kon came out at 1.79e+06 M⁻¹ s⁻¹.
